# According to a protein production outcome set (Wang et al. 2014):
# Test: label from the status in PepcDB records
row,Sequence,protein production
1,MKEVRIVFQPGEISVPVAAGTTIMEAMNRSGLGEDFPCGGRGKCGKCRVKVREGREDFTAIDEDHLTAQELAEGVRLACATKINRDMMVEMQSPKKLQHHILIDSAARAFHIHPHLVKVFAEIAQPSLSEHKSDWQRLQESLAGLGCSVHDLQAPLSVLRRLPDTLRESTNRVTTIVYGSQVLGVEQGDTTGTLLGMAFDIGTTTIVGYLLDLNSGRELEVVSTLNPQAQYGGDVISRITFAGKEEKGLDTLHQAVTGAMNRLIGEAVDKAGVSRTQLYGISVAANTTMHHLFLGITPRSIGMSPYVSAINQGLVVAPGELGLEINKAGRVFVLPNIAGFVGADTTAVLLASDLEKSDHVTLILDIGTNGEIVLGSKNRMVACSAAAGPAFEGAQITSGMRGADGAIDHISFDHGLSYTVIGNGRPIGICGSALLDGVAGFVELGMINKRGKFLEPEKLTHPSALKLKDRLIKYEETWAFQLVEAGQTRHGRPILITQNDIRELQLAKGAIAAGVRILQEAMGIECEDIKEVLLAGAFGNYLNPHSACVIGLIPRELESRIKTIGNAAGNGAKIALLSAQEFSRAKDLAGGVSFVELGSYPGFNTIFAQNTYFKLDLEHHHHHH,not failed
2,MKEVTPRFVELGQVSAIRTEPEIAYRSNQGVTRQRQQTKVFKLVSTYDKVAVKNAIRAAYRQVFERDLEPYIINSEFTALESKLSNNEINVKEFIEGLGTSELYMKEFYAPYPNTKVIEMGTKHFLGRAPLNQKEIQQYNQILASQGLKAFIGAMVNGMEYLQTFGEDTVPYRRFPTLPAANFPNTERLYNKLEHHHHHH,not failed
3,MKEYLTRSNISYFSIGSGTPIIFLHGLSLDKQSTCLFFEPLSNVGQYQRIYLDLPGMGNSDPISPSTSDNVLETLIEAIEEIIGARRFILYGHSYGGYLAQAIAFHLKDQTLGVFLTCPVITADHSKRLTGKHINILEEDINPVENKEYFADFLSMNVIINNQAWHDYQNLIIPGLQKEDKTFIDQLQNNYSFTFEEKLKNINYQFPFKIMVGRNDQVVGYQEQLKLINHNENGEIVLLNRTGHNLMIDQREAVGFHFDLFLDELNSNN,not failed
4,MKFAVAVSGDRVNGPGESEEVQIYETDGGNVRLIEKYSNPALNATAARGVFMLKSALDHGANALVLSEIGSPGFNFIKNKMDVYIVPEMPVADALKLILEGKVSPATAPTHDHGHHH,not failed
5,MKFDRHRRLRSSATMRDMVRENHVRKEDLIYPIFVVEKDDVKKEIKSLPGVYQISLNLLESELKEAYDLGIRAIMFFGVPNSKDDIGTGAYIHDGVIQQATRIAKKMYDDLLIVADTCLCEYTDHGHCGVIDDHTHDVDNDKSLPLLVKTAISQVEAGADIIAPSNMMDGFVAEIRRGLDEAGYYNIPIMSYGVKYASSFFGPFRDAADSAPSFGDRKTYQMDPANRLEALRELESDLKEGCDMMIVKPALSYLDIVRDVKNHTNVPVVAYNVSGEYSMTKAAAQNGWIDEERVVMEQMVSMKRAGADMIITYFAKDICRYLDK,failed
6,MKFEILQQLNAERAARRPAIVVTDTATGAQRLVKAADIAADPLAAELGKQLRMGKSASIEIDGRKLFLNVYAPTAKLVIVGAVHISQALAPLARSLGYDVTVVDPRTAFASPERFPDVPLIAEWPDVALPPLNIDHYTAFVALTHDPKIDDPALLHAFARDCFYIGALGSKKTHAKRLERLKGQGASDADLGRIHAPIGLAIGAVSPSEIAVSIMAEITAALRLPASSKAAAA,failed
7,MKFEKRQVYYVVITFAICYAIQAYWGAVSNILTTLHKAIFPFLMGAGIAYIINIVMSVYERLYIKLFKGSRLLMAIKRSVSMILSYATFIGLIVWLFSIVIPDLISSLSSLLVIDTGALAKLVNNLNENKQISEVLNYMGTDKDLVSTLSGYSQQILKQVLSVLTNLLTSVSSIAATLLNVFVSFIFSIYVLANKEQLGRQFNLLIDTYLGSTGKTFHYVRHILHQRFHGFFVSQTLEAMILGSLTVIGMLIFQFPYALTVGVLVAFTALIPVVGAYIGVTIGFILIATESLTEAFLFVLFLILLQQFEGNVIYPKVVGGSIGLPSMWVLMAITIGGALWGILGMLLAVPVAATIYQIVKDHIIKRQTLRNCARTYR,failed
8,MKFESYDLAPGIKKSLAEAGFNRPTDIQFKSIPPILAGEDVLAIAQTGTGKTAAFVIPVLNTLINVKKSEHTDISCLVMAPTRELAVQISEVFKKIGAYTRLRTVCITGGVEQEAQIAAADYGIDILVATPGRMFDLIYQKHIKITRVKILVLDEADHMLDLGFIKDIQDVKKFLPARHQTLFFSATINEEIKKLAYSLVKNPIRIQIAPKDRVSKNITHSVAFIGMDDKRFFLERLLKEHPESKVIVFVRTQVRADRVQAAMERVGLKSVTMHGGKEQQARDAAMDAFKNGTVHVLIATDISARGIDIAGVEYVVNYDMPEVAENYVHRVGRTGRGVSKGFAISFCSMEEKPVLDEVEEFLGKEINVIEITGKDYDATLDLTEDVNDNWKALLKEADAETTKKYVPKKKKKK,failed
9,MKFFGEIAERAGVPSVMGEILAGILFGALFLDVETGIITFFAQLGSIFLLFTAGYKEVSLRDLRPAVLVAFIPTLTQLVFAFAFGFMLGKIFNFTFLQSLFMAVALSPTAIGVVIRILIDLNYLSSRPGLVMLSSAVLDDIIAISLLSLIVTFARFNRAPSALAVLTISGKILLFLLIMYILGKYFFPRLFVHAQKMHAKEAVFSLVVMTALFSSYLAELFELHATIGAFIGGMLISEIPLAKIPDVQSKVEGLAYGILIPLFFAFIGYSIDLYALVKAGIFVPVVTLLALSGKLIGGFIGSKAIGFNFCESLAFGAGVMPRAGIELVMLTIGRGIGIIGEEIFSAMVFMVIVSILISPSALKFAIQAERKNKTGNELKVG,failed
10,MKFGETFDMVLSDVRGKKIHASVKREHLNRFERLIVPGEWRAIENFGLTYATGQFKATDHRYKMGFMAQTRVVRIDPLSDSYFLSLTAFNDVLNGGLNQNYLIDVVGQIVNVGEMETIDVHNQPTKKIDFELRDQKDERLPCTLWGSFAEQVFTACEAANGEMIICLVRFAKLKTYKDVRSISNAFNTSQILINPDLPEILEFKDALPKDCLALTLIESKPKSKIDEFPTGDFYLQFAKKTIKEVSEMFDVGRVKVLCTIYDIDRDWSWYYIVCKKCNKKVTKVVMTSLKAQLWCETCRAPITNVLARYKLHVKVMDSSGEMKLMLFDAMSSEIVGCPANNLLDGSFDEIEDPDILPDSIKNLIGKTYQYLVCVENENKRYQMHDSIDQCSLMLTYSEEPSEATTPSSKRSSDTSISPADNFSTTKKLCLDSIKIVKIKQEMVEKNNEAKVVGEKLNF,failed
11,MKFGKRHYRPQVDQMDCGVASLAMVFGYYGSYYFLAHLRELAKTTMDGTTALGLVKVAEEIGFETRAIKADMTLFDLPDLTFPFVAHVLKEGKLLHYYVVTGQDKDSIHIADPDPGVKLTKLPRERFEEEWTGVTLFMAPSPD,not failed
12,MKFKNILFDFDDTLVDFYDAEKKAFYNLAQKYNHQPTQQDFEHFKKVNQAHWEAFQQNKLTKDEVLSQRFINYFNDYQIHVNGKEADKCFRAELAMAPVKLFDHTLEVIQQLKLNHSLYIVTNGVTETQLRRIAQTQFNEIFQDVFISEKAGFQKPMTEFFDFVFEHIGENNRNQTLIVGDSLTSDILGGKNANISTCWFNIRQKENHTSIQPDYIINDLSEMIRIVE,failed
13,MKFLGRGRELARFKEELDAARPSLVILYGRRRVGKSRFLRELGKSRKEIYFQATRVSSLLNLEQFKIEVANILGALPVLESLPSWEGVFYYIAEHTRNNPGLLITIDEFPYLLDGDPALPSILQKFWDSGAPADGGLKLILCGSSISQMQDLLAERNPLYGRQTLSLDMKQLPLTDVARFFPKYDAEAIISTYAIFGGIPHYLQLFNPDVPLKDNVVRLLLTETGTLVDEPNTLLQTELHEPGFYSSVLAAIADGCNTTSEIASRLGVKVEKITSYAAKLVALHLISNTKSLDVDEKVRNRRFRLDDSLISFWHRFVRPSLTAISGGFGEEVYRQVVAPGFSEYMGIAFEAIALEYARIHIQEKLGLPAKELGQIWGHSDFDIDVAGRLLNGEYFYGDCKWTNADIDMGHLRQLRERSERTRYGRGTAGKHFLLFSKAGFSTDLIVFAKDETRRVHLLTPNDLVRPNQ,failed
14,MKFLTVSDDMNFLRQVNTLVAGKGDMDSVIIGEGDAKGLGSKVLYRAKKGTPFDAVSEGILKIAGNYDYIAIGSTEVGREIAGYLSFKTGFYTATEIFSLEFNGQKAHTKRFFYGGKTVIEEESDARILTVAPGVIEAKDLGTTPEIRDLEIGQSRIKITKFV,not failed
15,MKFLVGYSNDSSGKDALKLGVALAEMTQGKLIVCHIVAKTWHNIALAKFDEDYDQFLCDEAQKALDDAKLAVPSHIEARYIARTALSISEGLKQTAKELSVDCMVISGARIAIKGQFFSGTVADELLNQLSLPVALAPKGFAKNQGFTSPLTRLSCAVSGSDQSCNLAISAGEWAEIFNVPLRFVTFAVRDRDITPTAAGFDAENMVINEWREQIEAEYAQATQHWESDVPISLEIGDGPTWKESIQSIDWQASELLIVGTTTSGIFKQVLVGKNAEKIIRYASVPRLVLPRSTD,failed
16,MKFRRHTKAIRSLAGSLISHASAFAPALFAAIIAAIVVWVATNWRLERSLADERSVVAGELATISSRLQTNLNSNVKLLQGLAAGIAVDPAMGQNRFSKLAAQILQPDSQLRSFAAAPDMVVQWVYPETGNEKAIGLDYRKNEKQRAAAMLARNTHNIVLTGPVELVQGGTAFVVRCPVYIDDGNSQIFWGLLSGIIDIPRLYRDSGLGSTDLEIAISTTPEPNSPKQVFFGGLETFEKKPVVASVDMTYGRWSLAALPRHGWGQNNGIGTFELYASLLALCVVAPIVWVGFLTKSRQKTIEKLRLHKSKLVRARQRLEHLSLHDALTGLPNRRFVDQMISQPPRPDPQDRLILIHIDLDRFKEINDTKGHAGGDMVLQTTASRLADLTGPNDVAARIGGDEFVFASWSTDPEPKAAELARQIVDALQQTIFIDGAGYVVGASVGVAWETESARDRDLGQLLLNADLALYEAKKAGRGRAAVFTEELRSAAIHAKELADEFNQALERDELVAFFQPQFNANTLDIAGVEALARWDHPRKGLLGPNAFLDAAEKLGRSGDMDRLILQKALFELTRWDGLGMHIPRVSVNISARRLAQANLLAELSALPAAKDRLCFELLETISFDELQPALNEVIPAIKALGIEIEIDDFGTEHASIVSLLRFEPRRLKIDREIIKPIIASPSQRRLVSSIIEIGRSQNIDIVAEGVETMEHAKILKDLGCHLLQGYALARPMSSDQLIEFCRMKGTGTAKASR,failed
17,MKFSKLADQVWGEEPDDQVRSFVFMSNLDAQETANTMDVSVSVERIHADLCGNTELASELHYTPDEWDEAQGWVKINYPLIDDTASASLDVVLDATFQPLPGQPFEGEALTLIDALLHHAENVAASNPWKRTTFHTAHMHPPGSNADCDYCLVLQRRGYVKAHEEIQQTIPLPSGDWSAGEFTVVDVEGTAFPSALIPSIVELQHRAALDVPHGNLSVAPAQWDEHRLAQQSERILKTGTKLFTVLFAEGSTVAAMSSIAIPPGSNPDIAEQGLTIVHPDFRGRGLGTAVKLAGLSLLSRCHPEIQRVATSNAVDNHAMLAINRSIGATEIARTTLWEKKL,failed
18,MKFVHSETHRRHDPQFFIVRGQITRSTEQPERADRLLAAAQRRGHERVEARDFGEAILAEVHCPRYLDFLKNGYAQWRALPGASQEITPHVHPPREESGYPVSIIGRAGFHIADTSSPMGPHTWEAALAASHSACTAAQLVIEGAPAAYSLSRPPGHHATRDRAGGFCFLNHTAVAAQWLRHHVARVAILDVDVHHGNGTQDIFYERDDVLHVSLHADPAYFYPFFTGYAQETGRGIGAGCNLNLPLPIGTDDEAFLAALRIACRRVLDFKPDVVVVALGLDTYEGDPLNAFRITTPGFARIGQAIAGLALPTVLVQEGGYLSDELGENLATFLDGFCQHHRPTATLR,failed
19,MKFVKIALIVAVVAIALFAAKQTGILEIITDIKSLQDWIASFGVWGYAVFVAAFVFACVFLLPGSAFTIVAGIVFGPIKGGILALFSATLGAVAAFIVARFLLRNTIMKKFGDNPIFKKIDDGVAANGTSFLILTRLVPVFPFSLQNYAYGLTSLNLGTYALVSLLTMAPGAFIFAYMAGDIATNGVSVMLLVKFAVAGLVLFGMSLIPKYIAKKKGINMEELAK,failed
